Reference: US20200268901A1 (Bristol-Myers Squibb, published 2020)
Where “and” joins values, the source holds several entries; their conditions need not be identical. Equal values may be shown once. Read-outs that look alike come from different tables or passages of the source.

T1: human CD73 on Calu6 cells (human, UniProt P21589 27-549)
T1 sequence (looked up): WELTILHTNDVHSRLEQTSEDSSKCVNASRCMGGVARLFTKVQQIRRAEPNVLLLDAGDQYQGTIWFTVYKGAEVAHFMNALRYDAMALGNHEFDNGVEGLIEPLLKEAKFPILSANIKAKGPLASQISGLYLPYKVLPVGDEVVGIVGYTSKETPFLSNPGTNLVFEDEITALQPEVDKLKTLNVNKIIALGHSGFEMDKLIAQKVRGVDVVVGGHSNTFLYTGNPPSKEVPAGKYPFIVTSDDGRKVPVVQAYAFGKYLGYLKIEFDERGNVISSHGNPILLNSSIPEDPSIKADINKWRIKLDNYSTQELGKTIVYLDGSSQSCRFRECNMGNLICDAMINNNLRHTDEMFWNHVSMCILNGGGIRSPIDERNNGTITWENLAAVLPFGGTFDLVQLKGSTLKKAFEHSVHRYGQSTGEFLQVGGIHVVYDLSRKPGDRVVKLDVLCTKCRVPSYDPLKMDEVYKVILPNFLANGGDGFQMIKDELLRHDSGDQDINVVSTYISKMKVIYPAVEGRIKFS

T2: hCD73-his (full length extracellular domain of human CD73, residues 26-546, C-terminal polyhistidine tag) (human, UniProt P21589 26-546)
T2 construct: range 26-546; not shown: C-terminal polyhistidine tag
T2 sequence (looked up): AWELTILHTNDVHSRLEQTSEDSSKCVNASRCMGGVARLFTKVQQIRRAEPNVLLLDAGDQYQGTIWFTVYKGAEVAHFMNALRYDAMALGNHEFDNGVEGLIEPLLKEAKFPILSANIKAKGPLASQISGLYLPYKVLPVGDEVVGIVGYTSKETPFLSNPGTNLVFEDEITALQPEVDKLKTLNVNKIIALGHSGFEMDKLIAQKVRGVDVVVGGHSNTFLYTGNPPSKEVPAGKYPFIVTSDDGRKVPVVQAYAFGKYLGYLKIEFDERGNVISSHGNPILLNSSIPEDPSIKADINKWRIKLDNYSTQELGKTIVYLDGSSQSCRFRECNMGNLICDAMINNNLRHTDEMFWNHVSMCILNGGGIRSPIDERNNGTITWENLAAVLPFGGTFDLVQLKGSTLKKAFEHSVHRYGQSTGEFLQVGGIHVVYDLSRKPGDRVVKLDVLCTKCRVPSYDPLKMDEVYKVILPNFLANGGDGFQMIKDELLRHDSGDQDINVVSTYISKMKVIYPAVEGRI

T3: human GITR on cells (activated human T cells; 3A9-hGITR cells) (human, UniProt Q9Y5U5 26-241)
T3 sequence (looked up): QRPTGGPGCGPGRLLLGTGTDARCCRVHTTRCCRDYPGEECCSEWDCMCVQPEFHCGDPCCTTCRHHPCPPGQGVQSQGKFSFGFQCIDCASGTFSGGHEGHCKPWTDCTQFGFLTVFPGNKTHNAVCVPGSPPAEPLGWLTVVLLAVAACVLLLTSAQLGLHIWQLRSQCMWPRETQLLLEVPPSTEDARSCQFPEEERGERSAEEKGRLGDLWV


How the values were obtained:
[1] = biological target: T1, human CD73 on Calu6 cells; test: cell-based or functional assay
[2] = biological target: T2, hCD73-his (full length extracellular …); test: SEC, 5.5 uM each; peak 1: complexes larger than 4:4
Protocol: (§1) The oligomeric state of CD73/antibody complexes were examined by size-exclusion chromatography coupled to an in-line multi-angle light scattering detector (SEC-MALS). Isocratic separations were performed on a Shodex PROTEIN KW-803 column connected to an Prominence Shimadzu UFLC in buffer containing 200 mM K₂HPO₄, 150 mM NaCl, pH 6.8, containing 0.02% Na azide (0.1 μm filtered) running at 0.5 mL/min. Samples were injected onto the column using a SIL-20AC Prominence Shimadzu autosampler, and data were obtained from three online detectors connected in series: a Prominence SPD-20AD diode array UV/vis spectrophotometer followed by a Wyatt miniDAWN™ TREOS Multi-Angle Light Scattering Detector then a Wyatt Optilab T-rEX Refractive Index Detector. Data were collected and analyzed using Astra (Wyatt) and Labsolutions (Shimadzu) software.
(§2) CD73.4 antibodies having the heavy chain constant regions set forth in Table 14 were also tested for formation of high molecular weight complexes by SEC-MALS and DLS experiments, as described in Example 3.

[3] = biological target: T2, hCD73-his (full length extracellular …); test: SEC, 5.5 uM each; peak 4: free mAb
Protocol: as §1, with “Isocratic” for “The oligomeric state of CD73/antibody complexes were examined by size-exclusion chromatography coupled to an in-line multi-angle light scattering detector (SEC-MALS). Isocratic”
as §2

[4] = biological target: T2, hCD73-his (full length extracellular …); test: SEC, 5.5 uM each; peak 2: about 2:2 complexes
Protocol: as §1, §2

[5] = biological target: T2, hCD73-his (full length extracellular …); test: SEC, 5.5 uM each; peak 3: about 1:1 complexes
Protocol: as §1, §2

[6] = biological target: T1, human CD73 on Calu6 cells; test: cell-based or functional assay; remark: listed apart in the source
[7] = biological target: T1, human CD73 on Calu6 cells; test: cell-based or functional assay; remark: listed apart in the source
[8] = biological target: T3, human GITR on cells (activated human T …); test: cell-based or functional assay

Binder	T1/2 (hr) of CD73 internalization, Calu6 cells [1]	T1/2 (hr) of CD73 internalization, NCI-H292 cells [1]	Ymax (%) of CD73 internalization, Calu6 cells [1] [%]	Ymax (%) of CD73 internalization, NCI-H292 cells [1] [%]	UV % Peak1 (<12.9 min) [2] [%]	UV % Peak4 (16.7-19.3 min) [3] [%]	UV % Peak2 (12.9-15.1 min) [4] [%]	also measured
CD73.4-IgG2.3-plusTHT (antibody) heavy: QVQLVESGGGVVQPGRSLRLSCAASGFTFSNYGMHWVRQAPGKGLEWVAVILYDGSNKYYPDSVKGRFTISRDNSKNTLYLQMNSLRAEDTAVYYCARGGSSWYPDSFDIWGQGTMVTVSSASTKGPSVFPLAPCSRSTSESTAALGCLVKDYFPEPVTVSWNSGALTSGVHTFPAVLQSSGLYSLSSVVTVPSSNFGTQTYTCNVDHKPSNTKVDKTVERKSCVETHTCPPCPAPPVAGPSVFLFPPKPKDTLMISRTPEVTCVVVDVSHEDPEVQFNWYVDGVEVHNAKTKPREEQFNSTFRVVSVLTVVHQDWLNGKEYKCKVSNKGLPAPIEKTISKTKGQPREPQVYTLPPSREEMTKNQVSLTCLVKGFYPSDIAVEWESNGQPENNYKTTPPMLDSDGSFFLYSKLTVDKSRWQQGNVFSCSVMHEALHNHYTQKSLSLSPGK light: not shown	0.355 h	0.293 h	81.2	91.4	30.6	33.7	–	–
CD73.4-IgG2.3-plusGGG (antibody) heavy: QVQLVESGGGVVQPGRSLRLSCAASGFTFSNYGMHWVRQAPGKGLEWVAVILYDGSNKYYPDSVKGRFTISRDNSKNTLYLQMNSLRAEDTAVYYCARGGSSWYPDSFDIWGQGTMVTVSSASTKGPSVFPLAPCSRSTSESTAALGCLVKDYFPEPVTVSWNSGALTSGVHTFPAVLQSSGLYSLSSVVTVPSSNFGTQTYTCNVDHKPSNTKVDKTVERKSCVEGGGCPPCPAPPVAGPSVFLFPPKPKDTLMISRTPEVTCVVVDVSHEDPEVQFNWYVDGVEVHNAKTKPREEQFNSTFRVVSVLTVVHQDWLNGKEYKCKVSNKGLPAPIEKTISKTKGQPREPQVYTLPPSREEMTKNQVSLTCLVKGFYPSDIAVEWESNGQPENNYKTTPPMLDSDGSFFLYSKLTVDKSRWQQGNVFSCSVMHEALHNHYTQKSLSLSPGK light: not shown	0.336 h	0.271 h	81.7	91.6	30	34.9	23.9	–
CD73.4-IgG2-C219S (antibody, anti-CD73; also called CD73.4-IgG2.3; CD73.4-IgG2CS) heavy: QVQLVESGGGVVQPGRSLRLSCAASGFTFSNYGMHWVRQAPGKGLEWVAVILYDGSNKYYPDSVKGRFTISRDNSKNTLYLQMNSLRAEDTAVYYCARGGSSWYPDSFDIWGQGTMVTVSSASTKGPSVFPLAPCSRSTSESTAALGCLVKDYFPEPVTVSWNSGALTSGVHTFPAVLQSSGLYSLSSVVTVPSSNFGTQTYTCNVDHKPSNTKVDKTVERKSCVECPPCPAPPVAGPSVFLFPPKPKDTLMISRTPEVTCVVVDVSHEDPEVQFNWYVDGVEVHNAKTKPREEQFNSTFRVVSVLTVVHQDWLNGKEYKCKVSNKGLPAPIEKTISKTKGQPREPQVYTLPPSREEMTKNQVSLTCLVKGFYPSDIAVEWESNGQPENNYKTTPPMLDSDGSFFLYSKLTVDKSRWQQGNVFSCSVMHEALHNHYTQKSLSLSPG light: not shown	0.372 h and 0.364 h	0.287 h and 0.284 h	–	–	37	28.6	–	UV % Peak3 (15.1-16.7 min) [5]: 7.7%; T1/2 (hr) of CD73 internalization, Calu6 cells [6]: 0.6 h; T1/2 (hr) of CD73 internalization, NCI-H292 cells [6]: 0.277 h; Ymax (%) of CD73 internalization, Calu6 cells [6]: 75.6%; Ymax (%) of CD73 internalization, NCI-H292 cells [6]: 78.4%; % internalization, Calu6 cells [7]: 88%; % internalization, H228 cells [7]: 94%; % internalization, H2030 cells [7]: 89%; % internalization, HCC15 cells [7]: 94%; T1/2 min of internalization, Calu6 cells [7]: 6.5 min; T1/2 min of internalization, H228 cells [7]: 13.8 min; T1/2 min of internalization, H2030 cells [7]: 3.7 min; T1/2 min of internalization, HCC15 cells [7]: 3.1 min
anti-GITR-IgG2 (antibody) heavy: QVQLVESGGGVVQPGRSLRLSCAASGFTFSSYGMHWVRQAPGKGLEWVAVIWYEGSNKYYADSVKGRFTISRDNSKNTLYLQMNSLRAEDTAVYYCARGGSMVRGDYYYGMDVWGQGTTVTVSSASTKGPSVFPLAPCSRSTSESTAALGCLVKDYFPEPVTVSWNSGALTSGVHTFPAVLQSSGLYSLSSVVTVPSSNFGTQTYTCNVDHKPSNTKVDKTVERKCCVECPPCPAPPVAGPSVFLFPPKPKDTLMISRTPEVTCVVVDVSHEDPEVQFNWYVDGVEVHNAKTKPREEQFNSTFRVVSVLTVVHQDWLNGKEYKCKVSNKGLPAPIEKTISKTKGQPREPQVYTLPPSREEMTKNQVSLTCLVKGFYPSDIAVEWESNGQPENNYKTTPPMLDSDGSFFLYSKLTVDKSRWQQGNVFSCSVMHEALHNHYTQKSLSLSPGK light: not shown	–	–	–	–	–	–	–	EC50 (nM), phospho-p65 NFkB signaling, CD4+ T cells [8]: 12.8 nM; EC50 (nM), phospho-p65 NFkB signaling, CD8+ T cells [8]: 9 nM; Emax (%), phospho-p65 NFkB signaling, CD4+ T cells [8]: 69%; Emax (%), phospho-p65 NFkB signaling, CD8+ T cells [8]: 85%
CD73.4-IgG2.3G1-KH (antibody) heavy: QVQLVESGGGVVQPGRSLRLSCAASGFTFSNYGMHWVRQAPGKGLEWVAVILYDGSNKYYPDSVKGRFTISRDNSKNTLYLQMNSLRAEDTAVYYCARGGSSWYPDSFDIWGQGTMVTVSSASTKGPSVFPLAPCSRSTSESTAALGCLVKDYFPEPVTVSWNSGALTSGVHTFPAVLQSSGLYSLSSVVTVPSSNFGTQTYTCNVDHKPSNTKVDKTVERKSCVECPPCPAPPVAGPSVFLFPPKPKDTLMISRTPEVTCVVVDVSHEDPEVKFNWYVDGVEVHNAKTKPREEQYNSTYRVVSVLTVLHQDWLNGKEYKCKVSNKALPAPIEKTISKAKGQPREPQVYTLPPSREEMTKNQVSLTCLVKGFYPSDIAVEWESNGQPENNYKTTPPVLDSDGSFFLYSKLTVDKSRWQQGNVFSCSVMHEALHNHYTQKSLSLSPGK light: not shown	0.396 h	0.28 h	81.6	91.6	34.9	–	23.4	–
